# Molecular target: the molecule itself
# Assay: native gel or EMSA; 4-16% Bis-Tris native gel, Coomassie; 8.125 uM RRM alone or with NTD(1-77) at 0.5:1, 1:1 and 2:1 (NTD:RRM); incubated 10 min at 25 C in 300 mM NaCl, 40 mM HEPES pH 6.5, 4 mM DTT; full shift only at 2:1; also repeated with added RNA
protein,measurement,value
"TDP-43(102-260), tandem RNA recognition motifs RRM1 and RRM2 of TAR DNA-binding Protein 43 kilodaltons (domain or fragment, human, 15N-labelled (M9 medium with 15NH4Cl) in the CPMG NMR; also called RRMs; RRM12; source: E. coli BL21(DE3), purified (His-Trap, Superdex size exclusion)) KTSDLIVLGLPWKTTEQDLKEYFSTFGEVLMVQVKKDLKTGHSKGFGFVRFTEYETQVKVMSQRHMIDGRWCDCKLPNSKQSQDEPLRSRKVFVGRCTEDMTEDELREFFSQYGDVMDVFIPKPFRAFAFVTFADDQIAQSLCGEDLIIKGISVHISNA",stoichiometry N,2

# From PMC12442443, “Identifying interactions between TDP‐43's N‐terminal and RNA‐binding domains” (Protein Science : A Publication of the Protein Society, 2024)
